Experimental data published in publication PMC2774623 (Biochemistry, 2008).
Like-named read-outs stand apart in the source and are kept apart here.

B1: wild-type human NBD1 (spanning sequence 389−673) (domain or fragment, UniProt P13569 389-673, looked up)
chain: TTEVVMENVTAFWEEGFGELFEKAKQNNNNRKTSNGDDSLFFSNFSLLGTPVLKDINFKIERGQLLAVAGSTGAGKTSLLMVIMGELEPSEGKIKHSGRISFCSQFSWIMPGTIKENIIFGVSYDEYRYRSVIKACQLEEDISKFAEKDNIVLGEGGITLSGGQRARISLARAVYKDADLYLLDSPFGYLDVLTEKEIFESCVCKLMANKTRILVTSKMEHLKKADKILILHEGSSYFYGTFSELQNLQPDFSSKLMGCDSFDQFSAERRNSILTETLHRFSLEG
B2: recombinant β-subunit of human protein kinase CK2 (natural protein)
chain: not shown
B3: CFTR peptide 506−518 ΔF (peptide, UniProt P13569 506-518, looked up)
peptide: IIGVSYDEYRYR
B4: ΔF508 mutated recombinant murine NBD1 (spanning sequence 389−673) (domain or fragment, mouse, UniProt P26361 389-673, looked up)
chain: TTGIIMENVTAFWEEGFGELLEKVQQSNGDRKHSSDENNVSFSHLCLVGNPVLKNINLNIEKGEMLAITGSTGSGKTSLLMLILGELEASEGIIKHSGRVSFCSQFSWIMPGTIKENIIGVSYDEYRYKSVVKACQLQQDITKFAEQDNTVLGEGGVTLSGGQRARISLARAVYKDADLYLLDSPFGYLDVFTEEQVFESCVCKLMANKTRILVTSKMEHLRKADKILILHQGSSYFYGTFSELQSLRPDFSSKLMGYDTFDQFTEERRSSILTETLRRFSVDD
B5: wild-type recombinant murine NBD1 (nucleotide binding domain 1 of CFTR, spanning sequence 389−673) (domain or fragment, mouse, UniProt P26361 389-673, looked up)
chain: TTGIIMENVTAFWEEGFGELLEKVQQSNGDRKHSSDENNVSFSHLCLVGNPVLKNINLNIEKGEMLAITGSTGSGKTSLLMLILGELEASEGIIKHSGRVSFCSQFSWIMPGTIKENIIFGVSYDEYRYKSVVKACQLQQDITKFAEQDNTVLGEGGVTLSGGQRARISLARAVYKDADLYLLDSPFGYLDVFTEEQVFESCVCKLMANKTRILVTSKMEHLRKADKILILHQGSSYFYGTFSELQSLRPDFSSKLMGYDTFDQFTEERRSSILTETLRRFSVDD

Experiments:
Assay in all cases: SPR
[1] = target: T1, recombinant α-subunit of human protein kinase CK2 (human, UniProt P68400 1-391)
T1 sequence (P68400 whole entry): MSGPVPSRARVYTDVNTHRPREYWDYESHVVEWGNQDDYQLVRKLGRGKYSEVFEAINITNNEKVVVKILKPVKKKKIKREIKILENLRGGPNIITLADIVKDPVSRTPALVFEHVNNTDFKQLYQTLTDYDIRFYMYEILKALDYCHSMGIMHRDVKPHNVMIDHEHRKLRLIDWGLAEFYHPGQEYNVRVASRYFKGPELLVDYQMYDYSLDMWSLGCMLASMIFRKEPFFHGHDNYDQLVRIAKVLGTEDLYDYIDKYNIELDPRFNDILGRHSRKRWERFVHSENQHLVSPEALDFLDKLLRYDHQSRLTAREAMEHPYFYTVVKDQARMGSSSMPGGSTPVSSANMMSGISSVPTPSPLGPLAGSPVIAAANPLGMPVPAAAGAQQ

[2] = target: T1, recombinant α-subunit of human protein …; remark: listed apart in the source
[3] = target: B1
[4] = target: B5
[5] = target: B4
[6] = target: T1, recombinant α-subunit of human protein …; remark: listed apart in the source

Row | binding result [2] | Kd [6] [nM] | koff [6] [s⁻¹] | kon [6] [M⁻¹ s⁻¹] | Binder | also measured
1 | – | – | – | – | B1 | binding result [1]: binds
2 | binds | – | – | – | B2 | binding result [3]: binds; binding result [4]: binds; binding result [5]: binds
3 | binds | – | – | – | B3 | –
4 | – | 91.2 | 8.77e-05 | 961 | B4 | –
5 | – | 2470 | 0.000335 | 135 | B5 | –
